{"source": "paper PMC5177531", "key": {"[1]": {"biological_target": "T1, 6TM/E11 mu opioid receptor site 6TM variant (Mus musculus), P42866", "T1 chain": "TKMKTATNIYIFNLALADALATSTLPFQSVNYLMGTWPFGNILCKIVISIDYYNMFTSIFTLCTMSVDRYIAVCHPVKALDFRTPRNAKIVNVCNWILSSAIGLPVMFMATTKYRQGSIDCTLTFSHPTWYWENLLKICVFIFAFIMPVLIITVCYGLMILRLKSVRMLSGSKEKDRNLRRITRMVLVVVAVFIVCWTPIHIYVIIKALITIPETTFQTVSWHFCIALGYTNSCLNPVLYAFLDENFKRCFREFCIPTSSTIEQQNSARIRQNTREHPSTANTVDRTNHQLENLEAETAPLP", "assay": "competition", "settings": "modification not given"}, "[2]": {"biological_target": "mMOR-1 (Mus musculus), P42866", "sequence (P42866 whole entry)": "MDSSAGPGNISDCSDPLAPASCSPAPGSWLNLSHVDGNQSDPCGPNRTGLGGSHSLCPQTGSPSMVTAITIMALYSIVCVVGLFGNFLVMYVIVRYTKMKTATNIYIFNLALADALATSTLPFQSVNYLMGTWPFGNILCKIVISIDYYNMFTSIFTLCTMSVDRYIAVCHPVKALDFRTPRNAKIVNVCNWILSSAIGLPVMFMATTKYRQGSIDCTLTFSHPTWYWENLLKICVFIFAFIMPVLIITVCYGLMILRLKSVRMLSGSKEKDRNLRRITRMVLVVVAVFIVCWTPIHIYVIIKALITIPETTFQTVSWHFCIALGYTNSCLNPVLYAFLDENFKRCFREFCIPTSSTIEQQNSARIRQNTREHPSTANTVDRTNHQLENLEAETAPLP", "assay": "competition", "settings": "modification not given"}}}
{"binder": "YAFGYPS", "note": "[Dermorphin]", "values": [{"measurement": "Ki", "setting": "[1]", "result": "> 500", "unit": "nM"}, {"measurement": "Ki", "setting": "[2]", "result": 4, "unit": "nM"}]}
